Measured values as given in article PMC4872540, “Structural insight into antibody-mediated antagonism of the Glucagon-like peptide-1 Receptor” (Scientific Reports, 2016).

Molecular target: human GLP-1R (human, UniProt P43220)
Assay: cell-based or functional assay

Chain of human GLP-1R (P43220 24-463): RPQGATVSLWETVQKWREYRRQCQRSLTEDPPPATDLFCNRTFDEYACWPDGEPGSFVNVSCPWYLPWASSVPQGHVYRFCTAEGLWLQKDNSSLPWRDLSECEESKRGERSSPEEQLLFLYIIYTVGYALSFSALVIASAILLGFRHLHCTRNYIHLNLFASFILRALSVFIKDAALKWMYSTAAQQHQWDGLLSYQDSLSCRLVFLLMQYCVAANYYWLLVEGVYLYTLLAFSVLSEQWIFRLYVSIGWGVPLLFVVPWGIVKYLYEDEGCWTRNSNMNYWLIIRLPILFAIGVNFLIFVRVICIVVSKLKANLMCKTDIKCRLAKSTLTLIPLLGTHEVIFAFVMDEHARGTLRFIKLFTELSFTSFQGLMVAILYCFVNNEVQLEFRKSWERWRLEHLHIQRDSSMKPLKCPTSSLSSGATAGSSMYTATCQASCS

- IC50 of inhibition of GLP-1-mediated cAMP accumulation (Flashplate assay, BHK cells over-expressing human GLP-1R); blocks GLP-1 with GLP-1R: ~10 nM
B1: mAb 3F52 (antibody, V domains shown)
VH: DVQLQESGPGLVKPSQSLSLTCTVTGYSITSTYDWHWIRHFPGNILEWMGYISYSGSTNYNPSLKSRISITHDTSKNRFFLKLNSVTSEDTATYYCARATASFYDGSYYFDYWGQGTTLTVSS
VL: DIQMTQTTSSLSASLGDRVTISCRASQDISNYLNWYQQKPDGTVKLLIYYTSRLHSGVPSRFSGSGSGTDYSLTISSLEQEDVATYFCQQGNTLPFTFGSGTKLEIK
